The source of these data is patent US20090110693A1 (IMAXIO, published 2009).

The series concerns the molecule itself. Kind of series: self-association, SDS-PAGE with and without reducing agent.

B1: AVD262 fusion protein (Plasmodium yoelii MSP1.19-chicken C4 bp oligomerisation domain) (other)
chain: MRSHIASIALNNLNKSGLVGEGESKKILAKMLNMDGMDLLGVDPKHVCVDTRDIPKNAGCFRDDNGTEEWRCLLGYKKGEGNTCVENNNPTCDINNGGCDPTASCQNAESTENSKKIICTCKEPTPNAYYEGVFCSSSGSKKQGDADVCGEVAYIQSVVSDCHVPTEDVKTLLEIRKLFLEIQKLKVELQGLSKEFLEHILH
notes: Runs as a disulphide-linked heptamer of about 140 kDa without reducing agent
On to B1, for which the binding result was “binds”.

B2: AVD259 protein (chicken C4 bp oligomerisation domain with N-terminal leader) (other)
chain: MALKKHHENEISHHGSKKQGDADVCGEVAYIQSVVSDCHVPTEDVKTLLEIRKLFLEIQKLKVELQGLSKEFLEHILH
notes: Expressed in E. coli; On a non-reducing gel, monomer to heptamer bands are seen because disulphide formation is incomplete; the heptamer is the highest species; also called recombinant AVD259 protein
Consider B2, for which the binding result was “binds”.
